Source: US6750197B1, “Activators of endothelial nitric oxide synthase” (Rensselaer Polytechnic Institute, priority 1996, dated 2004)

Columns and labels:
[1] = target: T1, NNOS (Rattus norvegicus, UniProt P29476); assay: CAM binding: radiolabeled CAM trapped on a membrane by NNOS adhesion; conditions: no peptide: 774 ± 40
Experimental: (§1) JX series polypeptides are approximately 30-mers derived from ENOS and NNOS inhibitory polypeptides. B058 series are shorter (6-mers to 15-mers) peptides derived from flanking loops or from shorter segments of inhibitory polypeptides. CAM binding data represents counts from radiolabeled CAM trapped on a membrane by NNOS adhesion. INOS activity was assayed by measuring oxidation of ferrous myoglobin by product NO.

[2] = target: INOS (Rattus norvegicus, UniProt Q06518); assay: INOS activity by oxidation of ferrous myoglobin by product NO; assay type: biochemical; design: unit not given here; conditions: peptide 0.1 mg/ml; no peptide: 14.9 ± .56
Experimental: as §1

[3] = target: T2, recombinant bovine ENOS (Bos taurus, UniProt P29473); assay: NOS activity, kinetic 96-well microtiter plate assay, NADPH consumption; assay type: biochemical; conditions: peptide 100 μg/ml; mean ± SEM, triplicate
T2 construct: made in house; host or cells: E. coli
T2 sequence (P29473 1-1205): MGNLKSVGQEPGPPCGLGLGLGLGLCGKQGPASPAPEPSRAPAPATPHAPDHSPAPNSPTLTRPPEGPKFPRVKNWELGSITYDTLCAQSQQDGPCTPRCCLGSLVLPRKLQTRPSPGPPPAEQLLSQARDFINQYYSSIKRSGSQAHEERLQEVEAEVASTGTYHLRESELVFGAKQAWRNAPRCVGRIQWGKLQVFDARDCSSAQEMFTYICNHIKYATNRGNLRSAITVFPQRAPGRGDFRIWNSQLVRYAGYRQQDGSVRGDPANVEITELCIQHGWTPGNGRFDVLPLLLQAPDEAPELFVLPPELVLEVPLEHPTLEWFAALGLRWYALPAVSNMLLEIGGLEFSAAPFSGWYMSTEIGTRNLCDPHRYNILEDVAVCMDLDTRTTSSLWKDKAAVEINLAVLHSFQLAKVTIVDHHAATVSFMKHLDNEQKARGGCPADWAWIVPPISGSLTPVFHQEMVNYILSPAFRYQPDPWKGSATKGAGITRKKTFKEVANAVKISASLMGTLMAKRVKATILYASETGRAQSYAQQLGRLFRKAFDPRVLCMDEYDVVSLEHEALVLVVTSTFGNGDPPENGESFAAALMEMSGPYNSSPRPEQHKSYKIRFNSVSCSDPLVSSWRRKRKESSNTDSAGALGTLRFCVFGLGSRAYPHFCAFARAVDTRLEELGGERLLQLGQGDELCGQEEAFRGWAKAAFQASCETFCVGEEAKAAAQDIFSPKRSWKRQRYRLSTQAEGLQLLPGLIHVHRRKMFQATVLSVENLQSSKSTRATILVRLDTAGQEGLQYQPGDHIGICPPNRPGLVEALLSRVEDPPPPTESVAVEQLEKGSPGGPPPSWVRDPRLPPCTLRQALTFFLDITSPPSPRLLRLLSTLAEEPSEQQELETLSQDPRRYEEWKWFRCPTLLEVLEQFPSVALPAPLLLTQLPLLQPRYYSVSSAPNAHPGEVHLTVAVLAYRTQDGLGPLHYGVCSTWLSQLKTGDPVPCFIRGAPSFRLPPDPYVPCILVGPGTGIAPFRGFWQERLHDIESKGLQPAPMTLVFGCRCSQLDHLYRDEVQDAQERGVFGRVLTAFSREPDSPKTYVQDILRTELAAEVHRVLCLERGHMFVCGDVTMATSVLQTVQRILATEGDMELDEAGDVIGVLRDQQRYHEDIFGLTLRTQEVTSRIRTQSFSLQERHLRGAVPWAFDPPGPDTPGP
Experimental: (§2) NOS activity measurements were performed using recombinant rat NNOS (purified from overexpressing HEK293 cells), recombinant bovine ENOS (purified from overexpressing E. coli) or native INOS (from immunostimulant-activated rat aortic smooth muscle cells). Activity was determined with 1-20 pmole of NOS using a kinetic 96-well microtiter plate assay based on the kinetics of NADPH consumption (NNOS and ENOS) or Fe^2+-myoglobin oxidation. Radioligand binding was performed after incubation of 1-2 pmole of NOS for 15 minutes at 23° C. with either Bolton-Hunter labelled [125I]-calmodulin (1 nM) or [3H]-N-nitro-L-arginine (200 pM) and the indicated peptides. Values are means ±SEM of triplicate determinations.

[4] = target: T3, recombinant rat NNOS (Rattus norvegicus, UniProt P29476); assay: as above; assay type: biochemical; conditions: peptide 100 μg/ml; mean ± SEM, triplicate
T3 construct: made in house; host or cells: HEK293 cells
T3 sequence (P29476 whole entry): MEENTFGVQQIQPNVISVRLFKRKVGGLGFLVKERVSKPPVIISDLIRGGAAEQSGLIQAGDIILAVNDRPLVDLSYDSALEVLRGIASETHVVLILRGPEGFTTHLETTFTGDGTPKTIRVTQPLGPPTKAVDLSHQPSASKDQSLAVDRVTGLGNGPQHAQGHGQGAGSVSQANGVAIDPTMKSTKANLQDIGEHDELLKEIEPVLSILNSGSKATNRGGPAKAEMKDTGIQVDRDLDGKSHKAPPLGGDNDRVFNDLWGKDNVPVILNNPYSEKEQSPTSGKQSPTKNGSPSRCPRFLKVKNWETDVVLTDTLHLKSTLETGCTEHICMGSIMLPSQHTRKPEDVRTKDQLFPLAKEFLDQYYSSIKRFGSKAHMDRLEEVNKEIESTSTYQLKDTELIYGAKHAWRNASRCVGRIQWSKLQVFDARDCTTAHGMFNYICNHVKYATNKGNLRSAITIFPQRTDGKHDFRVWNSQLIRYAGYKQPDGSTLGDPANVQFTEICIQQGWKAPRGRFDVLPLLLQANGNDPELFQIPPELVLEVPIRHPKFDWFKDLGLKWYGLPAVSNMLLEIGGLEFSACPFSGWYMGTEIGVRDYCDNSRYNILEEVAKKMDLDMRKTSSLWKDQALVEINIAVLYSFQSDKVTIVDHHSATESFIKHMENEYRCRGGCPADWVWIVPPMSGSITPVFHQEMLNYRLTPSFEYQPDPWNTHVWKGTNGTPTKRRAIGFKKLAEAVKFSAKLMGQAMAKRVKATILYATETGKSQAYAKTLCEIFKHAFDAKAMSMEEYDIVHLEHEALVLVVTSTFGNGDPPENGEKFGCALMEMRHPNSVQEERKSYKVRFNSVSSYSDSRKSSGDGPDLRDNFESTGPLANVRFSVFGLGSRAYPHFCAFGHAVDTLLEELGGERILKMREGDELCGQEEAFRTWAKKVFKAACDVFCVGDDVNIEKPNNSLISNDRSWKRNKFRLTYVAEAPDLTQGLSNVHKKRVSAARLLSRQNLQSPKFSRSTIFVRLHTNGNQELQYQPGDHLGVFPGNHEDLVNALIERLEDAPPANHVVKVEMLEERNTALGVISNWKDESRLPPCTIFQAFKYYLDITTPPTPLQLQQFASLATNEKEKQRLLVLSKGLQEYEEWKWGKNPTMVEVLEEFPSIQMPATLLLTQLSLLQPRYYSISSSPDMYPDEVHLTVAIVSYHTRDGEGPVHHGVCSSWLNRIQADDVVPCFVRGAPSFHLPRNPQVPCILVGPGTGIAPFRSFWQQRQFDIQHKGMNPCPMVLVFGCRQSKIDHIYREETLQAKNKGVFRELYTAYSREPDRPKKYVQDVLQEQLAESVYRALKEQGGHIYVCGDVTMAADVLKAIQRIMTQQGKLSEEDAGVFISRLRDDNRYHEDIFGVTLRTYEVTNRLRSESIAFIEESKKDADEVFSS
Experimental: as §2

[5] = target: T4, native INOS (from immunostimulant-activated rat aortic smooth muscle cells) (Rattus norvegicus, UniProt Q06518); assay: NOS activity, kinetic 96-well microtiter plate assay, Fe2+-myoglobin oxidation; assay type: biochemical; conditions: peptide 100 μg/ml; mean ± SEM, triplicate
T4 construct: endogenous in cells
Experimental: as §2

[6] = system: NOS; assay: Radioligand binding of [3H]-N-nitro-L-arginine to NOS; design: scale not given here; conditions: peptide 100 μg/ml; ligand 200 pM, 15 minutes at 23° C.; mean ± SEM
Experimental: as §2

[7] = system: NOS; assay: Radioligand binding of [125I]-calmodulin to NOS; design: scale not given here; conditions: peptide 100 μg/ml; ligand 1 nM, 15 minutes at 23° C.; mean ± SEM
Experimental: as §2

[8] = target: T5, ENOS (Bos taurus, UniProt P29473); assay: Effects on calmodulin binding (Example 3), ENOS
T5 sequence (P29473 2-1205): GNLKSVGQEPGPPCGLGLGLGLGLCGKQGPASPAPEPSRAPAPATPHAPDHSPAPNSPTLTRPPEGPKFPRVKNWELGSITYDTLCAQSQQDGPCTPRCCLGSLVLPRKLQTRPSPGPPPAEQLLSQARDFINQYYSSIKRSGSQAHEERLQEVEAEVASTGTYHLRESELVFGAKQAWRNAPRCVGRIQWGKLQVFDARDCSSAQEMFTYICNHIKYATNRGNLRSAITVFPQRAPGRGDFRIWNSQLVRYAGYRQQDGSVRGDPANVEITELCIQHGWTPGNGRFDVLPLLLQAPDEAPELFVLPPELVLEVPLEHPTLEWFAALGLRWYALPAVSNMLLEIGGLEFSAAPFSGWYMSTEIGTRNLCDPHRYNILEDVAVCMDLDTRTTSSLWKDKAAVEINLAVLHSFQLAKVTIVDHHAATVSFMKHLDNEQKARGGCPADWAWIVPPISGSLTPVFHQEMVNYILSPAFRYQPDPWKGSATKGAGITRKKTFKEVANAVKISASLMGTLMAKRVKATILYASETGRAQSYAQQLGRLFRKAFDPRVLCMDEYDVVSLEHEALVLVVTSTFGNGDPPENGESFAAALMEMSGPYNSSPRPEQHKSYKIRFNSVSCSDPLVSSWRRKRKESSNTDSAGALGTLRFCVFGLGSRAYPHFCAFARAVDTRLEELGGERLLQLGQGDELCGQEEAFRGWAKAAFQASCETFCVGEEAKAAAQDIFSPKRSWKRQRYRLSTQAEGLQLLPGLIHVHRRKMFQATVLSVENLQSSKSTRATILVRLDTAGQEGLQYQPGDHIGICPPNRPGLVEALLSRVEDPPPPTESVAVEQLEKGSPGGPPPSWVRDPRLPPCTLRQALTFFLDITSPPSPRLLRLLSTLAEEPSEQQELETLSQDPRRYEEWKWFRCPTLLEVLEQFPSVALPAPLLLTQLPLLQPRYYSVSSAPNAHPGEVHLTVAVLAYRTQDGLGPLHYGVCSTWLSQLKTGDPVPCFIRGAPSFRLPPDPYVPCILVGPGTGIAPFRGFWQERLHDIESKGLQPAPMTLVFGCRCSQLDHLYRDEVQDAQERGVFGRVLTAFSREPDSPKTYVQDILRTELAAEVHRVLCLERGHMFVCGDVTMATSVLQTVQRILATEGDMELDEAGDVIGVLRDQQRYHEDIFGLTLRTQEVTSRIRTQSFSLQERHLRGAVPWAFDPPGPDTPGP
Source text: (§3) In addition to the inhibition of enzyme activity, it is possible to modulate CAM binding to NOS with synthetic homologs of the control site elements. The relationship between enzyme inhibition and CAM binding in the presence of control site elements can be complex. In other systems, antibodies to inhibitory elements sometimes induce partial CAM independent activation, while preventing CAM dependent activation. It is important to remember that CAM binding is only a means to displace the inhibitor.
(§4) While a number of the polypeptides could modulate CAM binding, the series containing the RRKRK (SEQ ID NO: 10) motif was the most instructive. […] CAM binding was decreased almost to background levels, with effects seen at the 10 uM level.

[9] = target: T1, NNOS; assay: Effects on calmodulin binding (Example 3), NNOS
Source text: as §3, §4

T1 sequence (P29476 whole entry): as the sequence (P29476 whole entry) above

- NNOS CAM Binding [1]: 152 ± 26 counts
- INOS Activity 0.1 mg/ml [2]: 14.5 ± .70
- NOS Activity (% of control) ENOS [3]: 27.7 ± 2.0 % of control
- NOS Activity (% of control) NNOS [4]: 19.1 ± 0.9 % of control
- NOS Activity (% of control) INOS [5]: 92.1 ± 1.3 % of control
- Ligand binding to NOS [3H]-NHA [6]: 120.7 ± 12.7
- Ligand binding to NOS [125I]-CAM [7]: 0.0 ± 0.5
- effect on CAM binding to ENOS (in words) [8]: potent CAM antagonist
- level at which effects on CAM binding are seen ([8]; ENOS): 10 µM
- effect on CAM binding to NNOS (in words) [9]: potent CAM antagonist
- level at which effects on CAM binding are seen ([9]; NNOS): 10 µM
Sequence: SSWRRKRKESS [BO58-08, 13; b114 cites it by residues 4-11]
